# PMC11291975, “Chemotherapy-induced acetylation of ACLY by NAT10 promotes its nuclear accumulation and acetyl-CoA production to drive chemoresistance in hepatocellular carcinoma” (Cell Death & Disease, 2024)
# T1: GST-ACLY (UniProt P53396 1-1101)
# T1 construct: ATP citrate lyase (ACLY), cloned into pGEX-4T1; also called GST-ACLY protein; source: E. coli BL21 (DE3), purified (Glutathione Sepharose 4B)
# T1 sequence (looked up): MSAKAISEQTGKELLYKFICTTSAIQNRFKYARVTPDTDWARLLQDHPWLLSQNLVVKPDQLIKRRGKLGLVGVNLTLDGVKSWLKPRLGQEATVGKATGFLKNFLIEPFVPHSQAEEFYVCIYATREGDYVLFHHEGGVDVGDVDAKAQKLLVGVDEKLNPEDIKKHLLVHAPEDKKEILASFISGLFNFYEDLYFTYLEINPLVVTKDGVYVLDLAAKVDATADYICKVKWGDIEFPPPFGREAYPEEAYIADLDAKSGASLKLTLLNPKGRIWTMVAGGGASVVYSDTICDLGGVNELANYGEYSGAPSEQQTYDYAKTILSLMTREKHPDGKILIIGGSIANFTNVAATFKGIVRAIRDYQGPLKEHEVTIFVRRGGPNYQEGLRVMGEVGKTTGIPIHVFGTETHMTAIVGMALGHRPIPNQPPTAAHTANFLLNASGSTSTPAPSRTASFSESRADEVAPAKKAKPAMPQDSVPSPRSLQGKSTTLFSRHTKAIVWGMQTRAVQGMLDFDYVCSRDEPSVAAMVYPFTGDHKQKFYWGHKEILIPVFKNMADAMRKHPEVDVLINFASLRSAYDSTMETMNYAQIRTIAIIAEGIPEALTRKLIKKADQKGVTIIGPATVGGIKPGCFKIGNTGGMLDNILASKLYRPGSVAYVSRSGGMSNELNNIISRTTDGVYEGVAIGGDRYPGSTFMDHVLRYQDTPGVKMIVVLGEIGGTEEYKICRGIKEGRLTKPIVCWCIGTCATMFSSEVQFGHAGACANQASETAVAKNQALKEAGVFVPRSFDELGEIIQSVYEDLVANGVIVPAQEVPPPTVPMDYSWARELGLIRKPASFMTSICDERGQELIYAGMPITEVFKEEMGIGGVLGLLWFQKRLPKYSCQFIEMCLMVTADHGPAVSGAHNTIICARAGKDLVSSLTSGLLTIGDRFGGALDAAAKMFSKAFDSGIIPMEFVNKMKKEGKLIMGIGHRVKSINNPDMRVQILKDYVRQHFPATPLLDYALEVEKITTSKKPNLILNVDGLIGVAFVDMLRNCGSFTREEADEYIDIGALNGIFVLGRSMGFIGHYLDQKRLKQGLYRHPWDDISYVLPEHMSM
# B1: Flag-NAT10-His (natural protein, UniProt Q9H0A0 1-1025, looked up)
# chain: MHRKKVDNRIRILIENGVAERQRSLFVVVGDRGKDQVVILHHMLSKATVKARPSVLWCYKKELGFSSHRKKRMRQLQKKIKNGTLNIKQDDPFELFIAATNIRYCYYNETHKILGNTFGMCVLQDFEALTPNLLARTVETVEGGGLVVILLRTMNSLKQLYTVTMDVHSRYRTEAHQDVVGRFNERFILSLASCKKCLVIDDQLNILPISSHVATMEALPPQTPDESLGPSDLELRELKESLQDTQPVGVLVDCCKTLDQAKAVLKFIEGISEKTLRSTVALTAARGRGKSAALGLAIAGAVAFGYSNIFVTSPSPDNLHTLFEFVFKGFDALQYQEHLDYEIIQSLNPEFNKAVIRVNVFREHRQTIQYIHPADAVKLGQAELVVIDEAAAIPLPLVKSLLGPYLVFMASTINGYEGTGRSLSLKLIQQLRQQSAQSQVSTTAENKTTTTARLASARTLYEVSLQESIRYAPGDAVEKWLNDLLCLDCLNITRIVSGCPLPEACELYYVNRDTLFCYHKASEVFLQRLMALYVASHYKNSPNDLQMLSDAPAHHLFCLLPPVPPTQNALPEVLAVIQVCLEGEISRQSILNSLSRGKKASGDLIPWTVSEQFQDPDFGGLSGGRVVRIAVHPDYQGMGYGSRALQLLQMYYEGRFPCLEEKVLETPQEIHTVSSEAVSLLEEVITPRKDLPPLLLKLNERPAERLDYLGVSYGLTPRLLKFWKRAGFVPVYLRQTPNDLTGEHSCIMLKTLTDEDEADQGGWLAAFWKDFRRRFLALLSYQFSTFSPSLALNIIQNRNMGKPAQPALSREELEALFLPYDLKRLEMYSRNMVDYHLIMDMIPAISRIYFLNQLGDLALSAAQSALLLGIGLQHKSVDQLEKEIELPSGQLMGLFNRIIRKVVKLFNEVQEKAIEEQMVAAKDVVMEPTMKTLSDDLDEAAKEFQEKHKKEVGKLKSMDLSEYIIRGDDEEWNEVLNKAGPNASIISLKSDKKRKLEAKQEPKQSKKLKNRETKNKKDMKLKRKK
# notes: N-acetyltransferase 10 (NAT10), cloned into pFast-Bac1 as Flag-NAT10-His; also called purified Flag-NAT10; source: baculovirus-infected sf9 cells, purified (Ni-NTA agarose)
# Molecular target: T1, GST-ACLY
# Assay: pull-down; GST-ACLY or GST-ACLY deletion mutants bound to Glutathione Sepharose 4B, incubated with purified Flag-NAT10; WB with anti-Flag
# Settings: both partners purified
binder,measurement,value
B1,binding result,binds
